Consider 13 molecules from PMC12439599 (RNA (New York, N.Y.), 2025).

Where a chain is given by its changes, count along the chain named.

The chains are these.
T1: S. cerevisiae eIF5-CTD, eIF5 residues 201–405 (S. cerevisiae, UniProt P38431 201-405)
T1 sequence: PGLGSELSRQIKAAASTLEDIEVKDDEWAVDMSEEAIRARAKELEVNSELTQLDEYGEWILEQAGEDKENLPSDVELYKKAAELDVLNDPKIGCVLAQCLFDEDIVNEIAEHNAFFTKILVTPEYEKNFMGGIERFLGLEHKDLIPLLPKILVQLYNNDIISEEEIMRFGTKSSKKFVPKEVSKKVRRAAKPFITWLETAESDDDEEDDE

B1: human 5MP1-CTD (domain or fragment, UniProt Q9Y6E2 248-419, looked up)
chain: VQQSLGTRKELQKELQERLSQECPIKEVVLYVKEEMKRNDLPETAVIGLLWTCIMNAVEWNKKEELVAEQALKHLKQYAPLLAVFSSQGQSELILLQKVQEYCYDNIHFMKAFQKIVVLFYKADVLSEEAILKWYKEAHVAKGKSVFLDQMKKFVEWLQNAEEESESEGEEN
B2: human 5MP1-CTD phosphomimetic mutant (5MP1-CTD-EE) (domain or fragment)
chain: B1 chain with S165E, S167E
B3: human eIF5-CTD (residues 232–431) (domain or fragment, UniProt P55010 232-431, looked up)
chain: LERTIEERVNILFDFVKKKKEEGVIDSSDKEIVAEAERLDVKAMGPLVLTEVLFNEKIREQIKKYRRHFLRFCHNNKKAQRYLLHGLECVVAMHQAQLISKIPHILKEMYDADLLEEEVIISWSEKASKKYVSKELAKEIRVKAEPFIKWLKEAEEESSGGEEEDEDENIEVVYSKAASVPKVETVKSDNKDDDIDIDAI
B4: human eIF2β-K3 (K-box 3 with surrounding segments) (domain or fragment, UniProt P20042 106-173, looked up)
chain: DVQEPTEPEDDLDIMLGNKKKKKKNVKFPDEDEILEKDEALEDEDNKKDDGISFSNQTGPAWAGSERD
B5: human eIF2β-NTT (residues 1–191), His6-tagged (domain or fragment)
chain: MSGDEMIFDPTMSKKKKKKKKPFMLDEEGDTQTEETQPSETKEVEPEPTEDKDLEADEEDTRKKDASDDLDDLNFFNQKKKKKKTKKIFDIDEAEEGVKDLKIESDVQEPTEPEDDLDIMLGNKKKKKKNVKFPDEDEILEKDEALEDEDNKKDDGISFSNQTGPAWAGSERDYTYEELLNRVFNIMREKN
B6: human eIF2Bε-CTD phosphomimetic mutant (eIF2Bε-CTD-EE) (domain or fragment)
chain: GSPQMDDIKVFQNEVLGTLQRGKEENISCDNLVLEINSLKYAYNISLKEVMQVLSHVVLEFPLQQMDSPLDSSRYCALLLPLLKAWSPVFRNYIKRAADHLEALAAIEDFFLEHEALGISMAKVLMAFYQLEILAEETILSWFSQRDTTDKGQQLRKNQQLQRFIQWLKEAEEEEEEDD
B7: human eIF2Bε-CTD (domain or fragment, UniProt Q13144 543-721, looked up)
chain: B6 chain with E175S, E176S
B8: S. cerevisiae eIF2β residues 39–106 (K-boxes 2 and 3 with flanking regions) (domain or fragment, UniProt P09064 39-106, looked up)
chain: GSGDDLFAGLKKKKKKSKSVSADAEAEKEPTDDIAEALGELSLKKKKKKTKDSSVDAFEKELAKAGLD

For assay [1], the target named is human eIF5-CTD phosphomimetic mutant (eIF5-CTD-EE) (human) (UniProt P55010). Description: NMR titration.
For assay [2], the target named is B5. Description: NMR titration.
Assay [3] concerns the target B4. Nature of the assay: NMR titration.
Assay [4] has as its target B6. Nature of the assay: NMR titration.
Assay [5] has as its target B2. Nature of the assay: NMR titration.
The target of assay [6] is B3. Nature of the assay: NMR titration.
Assay [7] addresses B7. Nature of the assay: NMR titration.
For assay [8], the target named is B1. Nature of the assay: NMR titration.
Assay [9] has as its target B4. Description: ITC. (Isothermal titration calorimetry measures the heat released or taken up as one component is titrated into another.)
Assay [10] concerns the target B5. Nature of the assay: ITC.
Assay [11] has as its target B3. Description: ITC.
Assay [12] deals with B3. Description: NMR titration. This is another data set of the same source.
Assay [13] addresses T1, S. cerevisiae eIF5-CTD, eIF5 residues …. Description: crystal structure.

The term Kd denotes the free concentration of one partner at which half of the binding sites on the other are occupied at equilibrium, for simple one-to-one binding. A high value points to lower affinity. In [1], “human eIF2β-NTT (residues 1–191), His6-tagged (from UniProt P20042 1-191) (domain or fragment)” showed a Kd of 2.3 µM.
“human eIF2β-K1 (K-box 1 with surrounding segments) (from UniProt P20042 1-45) (domain or fragment)”: the Kd in assay [1] stood at 0.2 µM.
Take “human eIF2β-K3 (K-box 3 with surrounding segments) (from UniProt P20042 106-173) (domain or fragment)”: in [1], the Kd was found to be 0.3 µM.
Consider B1, for which the dissociation constant Kd in [2] was 63 ± 5 µM.
Take B2: the results for the Kd in [3] and in assay [2] were 23 ± 3 µM and 45 ± 6 µM, respectively.
Turning to MSGDEMIFDPTMSKKKKKKKKPFMLDEEGDTQTEETQPSETKEVE (domain or fragment, UniProt P20042 1-45, looked up) [human eIF2β-K1 (K-box 1 with surrounding segments)], the Kd was determined as 4 ± 1 µM in [4]; 11 ± 3 µM in [5]; 3 ± 1 µM in assay [6]; 8 ± 1 µM in [7]; 20 ± 7 µM in [8].
On the same counts, the results for DTRKKDASDDLDDLNFFNQKKKKKKTKKIFDIDEAEEGVKDLKIES (domain or fragment, UniProt P20042 60-105, looked up) [human eIF2β-K2 (K-box 2 with surrounding segments)] are 2.3 ± 0.5 µM, 5.6 ± 0.9 µM, 6 ± 1 µM, 9 ± 3 µM and 18 ± 3 µM.
The term stoichiometry N denotes a count of units in the complex or per binding partner. On to B3, for which the “stoichiometry N” value amounted to 1 in assay [9] and 3.46 in assay [10].
In the case of B4, the dissociation constant (Kd) came to 4.7 µM in assay [11], 4 ± 1 µM in assay [6], 24 ± 3 µM in [7] and 37 ± 5 µM in [8].
For B5, the Kd in assay [11] was found to be 33 µM; in assay [12], 37 ± 6 µM.
With B6, the Kd in [3] was determined as 14 ± 1 µM; in assay [2], 14 ± 4 µM.
In the case of B7, the equilibrium dissociation constant (Kd) in [2] is 44 ± 3 µM.
Turning to B8, the binding result in assay [13] is on record as “binds”.
